Measurements published in patent publication US20160002619A1 (CORNELL UNIVERSITY, published 2016).
Where a chain is given by its changes, count along the chain named. In names and notes the source's numbering stands. One block for each binder: values may come before it.

Assays:
[1] = target: T1, ALEXA FLUOR 488-labeled wild type mouse KGA (kidney type glutaminase isoform 1, residues 72-674) (mouse, UniProt D3Z7P3 72-674, ALEXA FLUOR 488 succinimidyl ester covalently attached to a lysine amino group (exact residue not given)); experiment: FRET time course: quenching of 10 nM 488-KGA fluorescence by QSY 9-KGA, then 10-fold excess unlabeled WT-KGA [panel a]
T1 construct: Recombinant; His-tag cleaved with thrombin
T1 sequence: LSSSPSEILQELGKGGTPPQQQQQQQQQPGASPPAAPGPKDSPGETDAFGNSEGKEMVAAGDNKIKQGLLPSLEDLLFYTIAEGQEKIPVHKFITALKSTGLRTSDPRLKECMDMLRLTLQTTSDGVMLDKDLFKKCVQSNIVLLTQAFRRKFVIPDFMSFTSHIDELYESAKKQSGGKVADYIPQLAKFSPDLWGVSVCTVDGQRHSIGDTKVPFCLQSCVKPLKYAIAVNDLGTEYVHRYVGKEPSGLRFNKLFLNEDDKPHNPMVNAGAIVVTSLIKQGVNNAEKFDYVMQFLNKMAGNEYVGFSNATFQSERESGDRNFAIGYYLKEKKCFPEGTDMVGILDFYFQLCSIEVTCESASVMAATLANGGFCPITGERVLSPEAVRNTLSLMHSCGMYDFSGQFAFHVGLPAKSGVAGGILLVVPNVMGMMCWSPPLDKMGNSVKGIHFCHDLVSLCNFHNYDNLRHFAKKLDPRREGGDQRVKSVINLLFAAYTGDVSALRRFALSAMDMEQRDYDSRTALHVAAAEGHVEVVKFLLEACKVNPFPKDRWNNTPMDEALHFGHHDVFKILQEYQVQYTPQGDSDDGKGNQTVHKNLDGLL
Method: FIGS. 9A-B illustrate that the alternate splice variant KGA behaves like GAC in a FRET assay. […] After 5 minutes, the appropriate volume of 33.25 μM (for concentrations up to 200 nM labeled protein) or 69.5 μM (for concentrations above 200 nM labeled protein) unlabeled WT-KGA was added to make the final concentration of unlabeled KGA to be ten-times the concentration of labeled KGA.

[2] = target: the molecule itself; experiment: preparative Superdex200 gel filtration, self-association
[3] = target: T2, ALEXA FLUOR 488-labeled wild type mouse GAC (glutaminase C, residues 72-603) (mouse, UniProt D3Z7P3 72-555, ALEXA FLUOR 488 succinimidyl ester covalently attached to a lysine amino group within the glutaminase domain (exact residue not given)); experiment: FRET time course: 200 nM QSY 9-labeled GAC added to 20 nM 488-WT-GAC
T2 construct: Recombinant from pET23a with an N-terminal His-tag and thrombin site; The tag was cleaved with thrombin; The oligomeric state (monomer/dimer/tetramer) depends on concentration
T2 sequence: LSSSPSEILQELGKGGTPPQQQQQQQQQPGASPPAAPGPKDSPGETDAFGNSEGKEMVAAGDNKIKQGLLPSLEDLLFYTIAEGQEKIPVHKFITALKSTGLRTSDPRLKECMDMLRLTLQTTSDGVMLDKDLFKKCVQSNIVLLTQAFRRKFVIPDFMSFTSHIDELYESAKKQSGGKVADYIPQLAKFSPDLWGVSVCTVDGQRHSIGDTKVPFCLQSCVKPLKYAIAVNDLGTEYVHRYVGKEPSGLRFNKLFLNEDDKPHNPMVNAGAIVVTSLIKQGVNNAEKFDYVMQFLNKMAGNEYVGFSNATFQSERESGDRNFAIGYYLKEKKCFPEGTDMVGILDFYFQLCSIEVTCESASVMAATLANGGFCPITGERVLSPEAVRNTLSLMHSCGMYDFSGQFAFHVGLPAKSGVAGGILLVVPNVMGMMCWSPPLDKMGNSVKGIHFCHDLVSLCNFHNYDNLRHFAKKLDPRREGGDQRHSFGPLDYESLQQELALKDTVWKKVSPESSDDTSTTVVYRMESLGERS
Method: Upon elution, light scattering data was collected and then used to calculate the molecular weight and polydispersity for the species eluted (right axis). Reference lines for the molecular weights of the monomer, dimer, and tetramer forms of GAC are included at 58 kD, 116 kD, and 230 kD respectively. […] In FIG. 4F, WT GAC and GAC mutants were titrated and added to an assay of 20 mM glutamine in the absence of phosphate to show no concentration dependent activation was observed of purified GAC mutants.
Fluorescence experiments were performed using a Varian Carry Eclipse Fluorometer in the counting mode. Excitation and emission wavelengths were 490 and 520 nm, respectively. Experiments were all prepared as one-mL samples and stirred continuously at 20° C. in 50 mM Tris-Acetate pH 8.5, 0.1 mM ethylenediaminetetraacetic acid (EDTA). […] Both BPTES and 968 were prepared in DMSO, and appropriate dilutions were made so that less than 2% (v/v) DMSO was added to an experimental sample.

[4] = target: T3, ALEXA FLUOR 488-labeled mouse GAC D391K (constitutive dimer mutant) (mouse, UniProt D3Z7P3 72-555, ALEXA FLUOR 488 succinimidyl ester covalently attached to a lysine amino group within the glutaminase domain (exact residue not given)); experiment: FRET: 5 nM 488-D391K-GAC titrated with QSY 9-D391K-GAC, fit to a simple ligand binding equation; monomer-monomer association to a dimer
T3 sequence: T2 sequence with D320K
From the text: FIGS. 10A-B illustrate measuring of the monomer-monomer binding affinity. […] In FIG. 10B, FRET values from FIG. 10A were plotted in a sigma plot and fit to non-linear regression simple ligand binding equation (line).

binding result [1]: binds
B1: QSY 9-labeled wild type mouse KGA (kidney type glutaminase isoform 1, residues 72-674) (enzyme)
chain: T1 sequence
modifications: QSY 9 succinimidyl ester covalently attached to a lysine amino group (exact residue not given)
notes: Recombinant; His-tag cleaved with thrombin; also called QSY 9-KGA

B2: unlabeled mouse GAC K316E/D391K/R459E (constitutive monomer mutant) (enzyme)
chain: T2 sequence with K245E, D320K, R388E
notes: also called K316E-D391K-R459E-GAC; monomeric GAC (K316E-D391K-R459E)
binding result [2]: no binding | concentration dependent activation (glutaminase activity, 20 mM glutamine, no phosphate): no concentration dependent activation was observed of purified GAC mutants

binding result [3]: no binding (tested: 200 nM)
B3: QSY 9-labeled mouse GAC K316E/D391K/R459E (constitutive monomer mutant) (enzyme)
chain: T2 sequence with K245E, D320K, R388E
modifications: QSY 9 succinimidyl ester covalently attached to a lysine amino group (exact residue not given)
notes: also called QSY 9-K316E-D391K-R459E; QSY 9-GAC (K316E, D391K, R459E) monomer mutant

Kd [4]: 2.5 nM
B4: QSY 9-labeled mouse GAC D391K (constitutive dimer mutant) (enzyme)
chain: T2 sequence with D320K
modifications: QSY 9 succinimidyl ester covalently attached to a lysine amino group (exact residue not given)
notes: also called QSY 9-D391K-GAC; QSY 9-GAC (D391K) dimer mutant
